This passage reports amyloid nucleation score results from the supplement of paper PMC12042874.

± gives the uncertainty stated by the source.

This series is described as follows: amyloid nucleation score (Sup35N fusion, yeast selection) (log enrichment); library NNK3; higher = more nucleation; inactive = no reads after selection. The essentials: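 The nucleation score is the DiMSum log enrichment of output over input reads, centred on the mode score of non-aggregating sequences. Only sequences with 100 or more input reads were scored, using Illumina sequencing of input and output plasmid inserts. Psi-negative yeast expressing Sup35N fused to peptides of 20 random codons were induced 24 hours with 100 μM copper sulfate and grown 7 days at 30°C on medium lacking adenine and uracil.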

In the case of FSSMF, the amyloid nucleation score result was “inactive”. Regarding CRYYNSC, the amyloid nucleation score result is “inactive”. For the substance IIVRSTDGLSCRSDSIYECD, the amyloid nucleation score entry was “inactive”. On to SSLCTL, for which the amyloid nucleation score entry is “inactive”. The same measure for QVNKFCYCMVDKLVVVH: 2.27 ± 0.074; for PLESSWSK: “inactive”.

Turning to MAHAFDTR, the amyloid nucleation score entry was “inactive”.

SLKMK: the amyloid nucleation score entry was “inactive”.

For YIEAMNAGLPGEPARYFVVS, the amyloid nucleation score entry was “inactive”.

On to AWPIIRFYIQRYLWIVRGRG, for which the amyloid nucleation score entry was “inactive”.

Consider LVMHMRLAWRECDHVSKQMR, for which the amyloid nucleation score was determined as 0.883 ± 0.15. With VQLFSQNALPMFNSWKYYDH, the amyloid nucleation score entry was “inactive”. For TQGFLNKAGNVLSVIMDRIR, the amyloid nucleation score result was “inactive”. Consider LCNSVAYPDSGTVRLLKREL, for which the amyloid nucleation score was 0.005 ± 0.6. The same measure for WGCYSWTMVRS: 1.33 ± 0.16; for VQDPDL: “inactive”; for LIICLYSTAGRGIRWSDSTA: “inactive”. For LVVLIFYYV the value was “inactive”; for KVCIHSIEIV, “inactive”.

As for LSEVRLRRQLLVGACDGGYN, the amyloid nucleation score entry is “inactive”. WNFYGWRVLSHRRTGSVHRL registered an amyloid nucleation score of -0.847 ± 1.4.

As to FGFYSCTLGG, the amyloid nucleation score result is “inactive”. As for SFPASFSYRNGFVWLNFWVV, the amyloid nucleation score result was “inactive”.

As for SSEKLMQGFKVRLVCHFLAR, the amyloid nucleation score entry is “inactive”. The same measure for GHCEYVVCYVNCRFVQMSVR: 1.65 ± 0.093; for KFANYSPRDGTCGTDAHVSD: “inactive”. The same measure for TFFIIIGYVLASGGALGLCR: “inactive”; for NAKPCSGPTMTGADEFPLCL: “inactive”. For the substance HKSINVIRDPGKIVFLTEVI, the amyloid nucleation score result was “inactive”. For KRPHV the value was “inactive”. The same measure for HTESTGLSTPWVHL: “inactive”. Regarding VYNLIRLFLYPTVISSITPL, the amyloid nucleation score result was “inactive”. Take CKVHECHVPAG: the amyloid nucleation score entry was “inactive”.

For the substance LESFWFMTGFF, the amyloid nucleation score result is “inactive”. Consider LLLIKPRKVPLIEVCGWETV, for which the amyloid nucleation score result is “inactive”. Regarding LKIRKFLTFKFSSALIIVVC, the amyloid nucleation score entry was “inactive”. The same measure for ILTCFFSQEMIWHFLDTYDY: 0.522 ± 0.24; for MSGSRWRSTNFTCNNLWFDR: -1.07 ± 1.1; for RYTMAVWRLMSCNSVKSVAL: “inactive”. Take CYGFSK: the amyloid nucleation score entry was “inactive”. For NMQGLRFSRKCCEHRGFYIC the value was “inactive”; for FIGGVVTVTVYNNTVESGLK, 1.65 ± 0.13. The same measure for NKVLFYVTYLFFIRNFLV: “inactive”; for SYSVIMNHMKRWNPGDTSKW: “inactive”. Regarding NWMGTGGYDMDDFFE, the amyloid nucleation score entry was “inactive”. As to EVFEWSVRLFSTL, the amyloid nucleation score result is “inactive”. With LNLSLVNCLMAVTCSLFL, the amyloid nucleation score was 1.44 ± 0.13. The same measure for TSQQHPASVSKGYMLRDG: “inactive”. Turning to RTSVYAALSWGEAVLREVFE, the amyloid nucleation score entry was “inactive”. The same measure for CSIYNCMSHHKRVTG: 1.2 ± 0.15; for FTWARETVPVVQNWFGTREV: “inactive”; for WQIWDRVQTRKFHGEFTYMR: “inactive”. Take CTKKM: the amyloid nucleation score result was “inactive”. FIKHVRIKFTWSVSREF: the amyloid nucleation score entry is “inactive”. The same measure for LYNVMGLALASLAISNLRDK: “inactive”; for FHTFSLTSINMVLLSFVVRF: “inactive”; for VLTVYDCGLEQPW: “inactive”. As to HWYGTMLKLFNVLKPMGPKI, the amyloid nucleation score entry was “inactive”. For VVLWWS the value was “inactive”; for CSMPWLRSSTGGGVLLIEKS, “inactive”; for SLRFMLWLLL, “inactive”. Consider CRVSGMDICLWSMMCDSVGS, for which the amyloid nucleation score result is “inactive”. The same measure for SIRVSVMFNIRKKVFDLQRF: “inactive”; for VSLLSVCGCDRRVFEVWHYG: 0.446 ± 0.2. GLMERNDMSEYSSAG: the amyloid nucleation score result was “inactive”. In the case of TNTSFSNWRCTPDRGIM, the amyloid nucleation score entry is “inactive”. Regarding TIFRSNDLRQYFWMA, the amyloid nucleation score came to 1.63 ± 0.071.

For IRVRLINSGAL, the amyloid nucleation score result was “inactive”. The substance WSTESWTYPGIRMCFWGGEG gave an amyloid nucleation score of -0.755 ± 1.4. For RMNMCMWLAWDSPWYIMGY the value was “inactive”.

MWVFKMRTGQYRASSRSLHR returned an amyloid nucleation score of 0.175 ± 0.37. The same measure for ETLGFVSMCHDSLMHNH: “inactive”.

VQFMMYVGTGIGAVGSGVNY yielded an amyloid nucleation score of 1.53 ± 0.11.

For the substance FLIDNCYWYPHCAPIVAPWL, the amyloid nucleation score entry is “inactive”. For the substance FYPLICQRLKRSNIPGVWP, the amyloid nucleation score result was “inactive”. For CFMHPADIPSMAVVVYLCAG the value was “inactive”; for SLFRNS, “inactive”; for RIRALLD, “inactive”.

On to VFKCCVLFGGSRWFTLFLWF, for which the amyloid nucleation score result was “inactive”.

For LAGIMCCEKVYCGPRDGVLG, the amyloid nucleation score stood at 1.69 ± 0.12. For SVWFGEIRNMGLIEEENRDW the value was “inactive”; for SIYDSVFKMFCVWIVTSVLF, “inactive”. For HAFFSADSWGNDIELFIYNG the value was “inactive”.

Regarding RVKASSFQISMMTDALKFWC, the amyloid nucleation score result was “inactive”.

Turning to MPRSCSDYACAV, the amyloid nucleation score result is “inactive”. For HSAVE the value was “inactive”; for LSKNSEILIYAYVLETFSCS, “inactive”; for FTYDCECALICINYT, 0.448 ± 0.27.

LATLLTMWRGSLRYNPLKRL came in with an amyloid nucleation score of -0.354 ± 0.48.

Turning to DYGLHDRTYTSIYRVA, the amyloid nucleation score entry was “inactive”. For VDNSYQFSLKTDSNYNIERQ the value was “inactive”.

Turning to GSLVRV, the amyloid nucleation score result is “inactive”.

In the case of RLSLKSFVRFQRLCP, the amyloid nucleation score result was “inactive”.

With FVSLLWLRGDVVHALFIQWM, the amyloid nucleation score entry was “inactive”.

Take AIVFGGNAQKSHTHDTGAMG: the amyloid nucleation score result is “inactive”. Take NFCNLLFR: the amyloid nucleation score result is “inactive”. As to IITVSGPLVVLVLSGKGSNN, the amyloid nucleation score turned out to be 2.42 ± 0.062. The same measure for KFNGCR: “inactive”; for SFPFDLFGNIVW: “inactive”. RFMSCMGFPHRCHGSSRYVG: the amyloid nucleation score entry is “inactive”.

As to FPSIFCPCFLTIYMFGWIVS, the amyloid nucleation score result was “inactive”.

Regarding VSLFGCKIMLRMKFGVCLSG, the amyloid nucleation score entry is “inactive”.

On to AWQYVGMISFM, for which the amyloid nucleation score result is “inactive”.

On to IVVVAFKSPSV, for which the amyloid nucleation score is 0.217 ± 0.32. Consider WKCVLMTSATHMPQYPHGCG, for which the amyloid nucleation score entry was “inactive”. For CALSHYGKFDYYPSFVSFKQ, the amyloid nucleation score result is “inactive”.

With PMSVRRTVFCPSTSM, the amyloid nucleation score result was “inactive”. The same measure for YNKGFALIRIVRQTERRLHT: “inactive”. As to FERSMHFENRDSDPCYIVRF, the amyloid nucleation score entry was “inactive”. Take VRWQYVYMPPA: the amyloid nucleation score result is “inactive”. For CFAYG the value was -0.533 ± 0.4; for PESGAPNPSGYCLAHH, “inactive”. TLISYFEG: the amyloid nucleation score entry is “inactive”. The same measure for FRGFIAVDAVGMVTNYIIKY: 1.89 ± 0.062.

Consider SVLFSLYSSLSYV, for which the amyloid nucleation score is 0.548 ± 0.2. As to PEFYA, the amyloid nucleation score entry is “inactive”. Substance SVVLRYVLRYNRSACESRRR displayed an amyloid nucleation score of 0.441 ± 0.21.

Consider SVDVTFSVYHY, for which the amyloid nucleation score is 0.702 ± 0.19. As to VRYVNGSKCTFNLS, the amyloid nucleation score entry is “inactive”. For SINGRDSQG the value was “inactive”; for RVIRHPAI, -0.461 ± 0.96; for EVQVFSFDTGCMHSHNLYAS, “inactive”. Substance GKCLLYRFILILLHP returned an amyloid nucleation score of -0.155 ± 0.93. For AGNLLARPSLQKGCLLDELP the value was -0.73 ± 1.7; for YRKLFDFRRVSTLHFTKSN, “inactive”. LLDNFY: the amyloid nucleation score entry is “inactive”.

On to EYSLMVNSTIDYFGDSNICE, for which the amyloid nucleation score result was “inactive”. The same measure for SLLYFLRNVKC: “inactive”; for KYCRRVYSSAETLYVLTHI: “inactive”. Consider SWLNKIAKVIST, for which the amyloid nucleation score entry is “inactive”. Consider RYKAVRRKYPGCRLGWMRPL, for which the amyloid nucleation score result is “inactive”. In the case of GCSSVRAGH, the amyloid nucleation score result was “inactive”. The same measure for FLLVNLTVITRACEKLPMRP: -0.277 ± 1.1.
